Data reported in the DeepSol protein solubility set.

Experiment: soluble on expression in E. coli; label from the status in PepcDB or PDB records

MGSDKIHHHHHHMVMLKMKKTIAYYRSSTDLQENSIEMQQIKAFEYSMKKRITIDEEYVDKDVSARKKTLMQRPGMNKLMKEIEAGVVGSIIVYKRDRFARKLQEHMQLYRLFQEYDIDVYFSSDSEVQMNYSPIGEYIEAILGSICENEGSLIAQRIQETKIAKFLSGKYAGNLPYGYEKGEPNADGQVNILQVSHEIEVVKEIYNALLNKECKSIQELCNDLNEKYKTEETKDWDQSKVVNIVKNPIYHGLRVMNFGSKEYKKAYKNIKVVEKTDWDIANEQLDKMIVKRETGKETIQFLLENILYCHECQKPLIAKKRMRSYQDYYIYECKEHDVCVEAGYIEVEILKHAKTFFHRLLDENFNELYERSTYQNVRKIKKLIGSQEMIIKGVTKKVGKLIDQWLNCQKMQREHEGNDCAKCQSNQHIGEIKEANEILKSEKRKLQHLDMRLYEIKNFKEKAKEWITHLECPKDILLLEKEERKRFYRDMIHCIQVDSWEYHIVFKHPFMLIQEVHQNSETV
soluble on expression in E. coli: not soluble

SMHPVAGSNPAFCGPGKPSCLNEDAMRAADQFDLYSSQQNKYSHTVSHKPMVCQRQDPLNETHLQPTSGRNIEIKDELKKKKNLNRSGKRGRPSGTTKSAGYRTSTGRPLGTTKAAGFKTSPGRPLGTTKAAGYKVSPGRPPGSIKALSRLADLGYGCGTAAFPYPMMHSRVVHGLQETSGEVKPPSE
soluble on expression in E. coli: soluble

MSVEAAKNARELLLKEYRAVLSTHSKKWPGFPFGSVVPYCLDAEGRPLILISRIAQHTHNLQADPRCSMLVGERGAEDIQAVGRLTLLAEARQLAEEEVAAAAERYYRYFPESADYHRVHDFDFWVLQPVQWRFIGGFGAIHWLAAERVPLANPFAGEAERGMVEHMNSDHAAAIAHYVELAGLPAHAAAQLAGIDTEGFHLRIGQGLHWLPFPAACGNPGAVRQALVQLARAERWPTVEPEQG
soluble on expression in E. coli: soluble

SVNAATVDLRIMETTDLHSNMMDFDYYKDAATEKFGLVRTASLIEQARAEVKNSVLVDNGDVIQGSPLGDYMAAKGLKEGDVHPVYKAMNTLNYAVGNLGNHEFNYGLDFLHKALAGAKFPYVNANIIDAKTGKPMFTPYLIQDTRVVDSDGQIHTLRIGYIGFVPPQIMTWDKANLNGKVTVNDITETARKYIPEMRAKGADVVVVVAHSGLSADPYQAMAENSVYYLSQVPGVDAIMFGHAHAVFPGKDFANIKGADIAKGTLNGVPAVMPGMWGDHLGVVDLVLNNDSGKWQVTQSKAEARPIYDAVAKKSLAAEDGKLVSVLKADHDATREFVSK
soluble on expression in E. coli: soluble

SSCTIEKILTDAKTLLERLREHDAAAESLVDQSAALHRRVAAMREAGTALPDQYQEDASDMKDMSKYKPHILLSQENTQIRDLQQENRELWISLEEHQDALELIMSKYRKQMLQLMVAKKAVDAEPVLKAHQSHSAEIESQIDRICEMGEVMRKAVQVDDDQFCKIQEKLAQLELENKELRELLSISSESLQARKENSMDTASQAIK
soluble on expression in E. coli: soluble

MAHHHHHHMSFVVIRLLEVLPTQVRTQLTANAEYVVSVSSAQRLSTFCSQGPYAATRLQLSDFDGAARLWEPQWNVVEALPATKEVHDVSRVCAVYRGNSGVTAFAFIDEHGTVLATTRWVDCALSTVSGRERAVLQAAQLRKLFTQCRPTVMAIGASSIACLPLLRTLETFLREQVHQSAVVDVPVVWASVEVPRYYSVTTYARLELPQTENIVVTSVALARYVQDPLQVLCSLFEGEQTALQLCRTIRISASHDRQLYQASGVGDEPVGGGGGPVGRRYCVPPQHCRDAAVCSRPRPRQSACVGQCHPSLRRSAKSTASGAASGTLRGRHRAERRAGAARSLAGAMRRGAPVAPSRCNADPVAVVRDRLFGGKGDCLLIDAAGRSVASRAAWNGAGGAPGCTLPRRRAFYGCQGQGECGGPGRRGSS
soluble on expression in E. coli: not soluble

MCGRFAQAQTREEYLAYLADEADRNIAYDPQPIGRYNVAPGTKVLLLSERDEQLHLDPVIWGYAPGWWDKAPLINARVATAASSRMFKPLWQHGRAICFADRWFEWKKEGDKKQPYFIHRKDGKPIFMAAIGSTPFERGDEAEGFLIVTSAADKGLVDIHDRRPLALTPETARVWMRQFLEPHSKSITYRVIPALTRPMMRKDTNPCQLEHHHHHH
soluble on expression in E. coli: not soluble

MGSDKIHHHHHHAIVSAKWERTSSLQGIQLKQASIEGLFGGKQSISILTIGRAEGYTAFIATTDSLTTTSQLAEQSRSSAAINGSYFSIKEGFSTCYLRKNEAVIDTTTTEERHLRVNGAVHMVDNNIRIIPWNDENEKKGFPLDGDILASGPLLMQDGKTCDFTTIDREFSETRHPRSAIALTKEGDIMLVAVDGRAEGHADGMSIAELAYLLRILKAHCALNLDGGGSTTLWVNGQVVNHPSDNKKFDNKGERKVHNIIAVRRLTNP
soluble on expression in E. coli: not soluble

MYIVVSTGDRAARIASKLPDCIIIDRDPDSAERLKEKGFNVLNGDASNPEILARFDMGEKIILADNDDFNIKVVKTAKLLGLDVYAVAADEDKCWLYEVEGVSKICGSVEALLSTIFRKNRYFEIQVEAEMEGKTL
soluble on expression in E. coli: not soluble

MAHTRSLQMLKAHSTRSALRQPQKKETGTNGNDPSVAPKNAQADSGKDERRGSQAMGWSCFGGCIKDEIFSVFGIGRKIIGRV
soluble on expression in E. coli: not soluble

MTVAVSPDGLPALVLNADYRPLSYYPLSLWSWQDAIKAVFLDRVNIVAEYEHAVSSPTFSMKLPSVVSLKAYVKPSRHPAFTRFNVFLRDRFQCQYCGTPDDLTFDHVIPRHRGGATTWENVVAACSPCNLRKGGMMPAHAKMWPLQKPYQPTVHDLHNNGRLFPPNHLHESWMDYLYWDVELEPLEHHHHHH
soluble on expression in E. coli: not soluble

MGSDKIHHHHHHMQREKVDVLVIGAGPAGTVAASLVNKSGFKVKIVEKQKFPRFVIGESLLPRCMEHLDEAGFLDAVKAQGFQQKFGAKFVRGKEIADFNFSDQFSNGWNWTWQVPRGNFDKTLADEAARQGVDVEYEVGVTDIKFFGTDSVTTIEDINGNKREIEARFIIDASGYGRVIPRMFGLDKPSGFESRRTLFTHIKDVKRPVAAEMEGNRITAVVHKPKVWIWVIPFSNGNTSVGFVGEPSYFYYYTGTPEERMRAMIANEGHIAERFKSEEFLFEPRTIEGYAISASKLYGDGFVLTGNATEFLDPIFSSGATFAMESGSKGGKLAVQFLKGEEVNWEKDFVEHMMQGIDTFRSFVTGWYDGTLHAVFFAKNPDPDHKRMICSVLAGYVWDKNNPFVKKHNTILKTLAKVIQMGEEA
soluble on expression in E. coli: not soluble

MPSAMNERTVAELEKLLRYIAANLKQRGREILTNYPITPPQFVALQWLLEEGDLTVGELSNKMYLACSTTTDLVDRMERNGLVARVRDEHDRRVVRIRLLEKGERIIEEVIEKRQRDLANVLESFSDEEIVVFERCLRKLHQEMTKE
soluble on expression in E. coli: soluble

KPGAPWWKSAVFYQVYPRSFKDTNGDGIGDFKGLTEKLDYLKGLGIDAIWINPHYASPNTDNGYDISDYREVMKEYGTMEDFDRLMAELKKRGMRLMVDVVINHSSDQHEWFKSSRASKDNPYRDYYFWRDGKDGHEPNNYPSFFGGSAWEKDPVTGQYYLHYFGRQQPDLNWDTPKLREELYAMLRFWLDKGVSGMRFDTVATYSKTPGFPDLTPEQMKNFAEAYTQGPNLHRYLQEMHEKVFDHYDAVTAGEIFGAPLNQVPLFIDSRRKELDMAFTFDLIRYDRALDRWHTIPRTLADFRQTIDKVDAIAGEYGWNTFFLGNHDNPRAVSHFGDDRPQWREASAKALATVTLTQRGTPFIFQGDELGMTNYPFKTLQDFDDIEVKGFFQDYVETGKATAEELLTNVALTSRDNARTPFQWDDSANAGFTTGKPWLKVNPNYTEINAAREIGDPKSVYSFYRNLISIRHETPALSTGSYRDIDPSNADVYAYTRSQDGETYLVVVNFKAEPRSFTLPDGMHIAETLIESSSPAAPAAGAASLELQPWQSGIYKVK
soluble on expression in E. coli: soluble

MSLGMHGAAHIVWDWNGTLFHDNAAIIGATNAAFAELGLEPITLERYRALYCVPVPKFYERLIGRLPTDAEWEIMDEIFHRYYAEHRVGCGLTEGAAELLVEWQSAGHSQSILSMYVHDELVPLVRGFGIEPHFIRVDGRTGPSGGSKAEHMVRHIGALAGVAGVDPARTVVIGDAADDAVAALHVGAQAVLYTGGSHSRASLEGVGVPVVDTLAEAVEEAGRLAAEGHHHHHH
soluble on expression in E. coli: soluble

MMKIAIIGSGISGLTCGYYLHRYHDITLFEANDYIGGHTATVDVELAGKPYAVDTGFIVYNDRTYPNFIKMMDEIGVQGKPTQMSFSVRNDANGLEYNGHTLTTLFAQKRNWLNPKFYRFIAEILRFNRLTKACVDNQLANEQTLGDFLAQHQFSEYFCENYILPMGAAIWSSSLADMRAFPLMFFARFFLNHGLLDVTNRPQWYVIPGGSRSYIAPLTQGFGDRIRLNSAVTQVKRLPSGVEVVVNGRSERFDEVIFACHSDQALAMLSDASSTEQQLLSALAYQANEVVLHTDTRLLPKRKAAWAAWNYWLKGEANQETRLPSLTYNMNILQHIEAPETFCVTLNSSEDIDPSKILRRFTYHHPVFSRPAIEAQQKKAQISGVNHTWFCGAYWHNGFHEDGVRSALDVVTQLEAYAQRSEQGAA
soluble on expression in E. coli: not soluble

MTYTTRQIGAKNTLEYKVYIEKDGKPVSAFHDIPLYADKENNIFNMVVEIPRWTNAKLEITKEETLNPIIQDTKKGKLKFVRNCFPHHGYIHNYGAFPQTWEDPNVSHPETKAVGDNDPIDVLEIGETIAYTGQVKQVKALGIMALLDEGETDWKVIAIDINDPLAPKLNDIEDVEKYFPGLLRATNEWFRIYKIPDGKPENQFAFSGEAKNKKYALDIIKETHDSWKQLIAGKSSDSKGIDLTNVTLPDTPTYSKAASDAIPPASLKADAPIDKSIDKWFFISGSV
soluble on expression in E. coli: soluble

MTARYIAIDWGSTNLRAWLYQGDHCLESRQSEAGVTRLNGKSPAAVLAEVTTDWREENTPVVMAGMVGSNVGWKVAPYLSVPARFSSIGEQLTSVGDNIWIIPGLCVSHDDNHNVMRGEETQLIGARALAPSSLYVMPGTHCKWVQADSQQINDFRTVMTGELHHLLLNHSLIGAGLPPQENSADAFAAGLERGLNAPAILPQLFEVRASHVLGTLPREQVSEFLSGLLIGAEVASMRDYVTHQHAITLVAGTSLTARYQQAFQAMGCDVAAVAGDTAFQAGIRSIAHAVAN
soluble on expression in E. coli: soluble

MSLTKQVYIIHGYRASSTNHWFPWLKKRLLADGVQADILNMPNPLQPRLEDWLDTLSLYQHTLHENTYLVAHSLGCPAILRFLEHLQLRKQLGGIILVSGFAKSLPTLQMLDEFTQGSFDHQKIIESAKHRAVIASKDDQIVPFSFSKDLAQQIDAALYEVQHGGHFLEDEGFTSLPIVYDVLTSYFSKETREGGSHHHHHH
soluble on expression in E. coli: soluble

MGSDKIHHHHHHMTDSDLWIQVSDVRKHYAIGKSGLSDALVSAQSSANTGPGEKIAVDGISLTIRNGERLGIVGRNGAGKSTLLHMVAGLSAPTAGKIDVHGRVTAIMTLGLGLREHASGRENIYIDGEVQGKSRVEIDAVIDEIIEFAELGEFIDMPVRTYSTGMKSRLAFAMISCLEPEILIIDEALSAGDAKFSAKATRKIQEICAKGRIVILVSHSMASIQSMCNRCLWIDQGKIVMDGLPDQVCKAYIDAVRSEDEAKLLERFRDEASTRFSLDGWDVDALYVLQGDTATQRVLLEAGEDALIRTKIQVPTGCEEAQLVMSVTRLDGLVVTQRRIALDKYTEAGVARVQFAMRPLVLGQGVYRLEIAAELGQALVASRSMIFEVFVRQPPTGGVPMLLYPSEATASLLS
soluble on expression in E. coli: not soluble

MDRLDRKILRILQEDSTLAVADLAKKVGLSTTPCWRRIQKMEEDGVIRRRVALLDPVKVNTKVTVFVSIRTASHSIEWLKRFSEVVSEFPEVVEFYRMSGDVDYLLRVVVPDIAAYDAFYKRMIAKIEIRDVSSAFAMEQIKYTTELPLDYMLLDNPKSGEE
soluble on expression in E. coli: soluble
